From US20160213771A1

Molecular target: CXC chemokine receptor 2 (CXCR2) (UniProt P25025)
Experiment: cell-based or functional assay

UniProt P25025, sequence (P25025 whole entry): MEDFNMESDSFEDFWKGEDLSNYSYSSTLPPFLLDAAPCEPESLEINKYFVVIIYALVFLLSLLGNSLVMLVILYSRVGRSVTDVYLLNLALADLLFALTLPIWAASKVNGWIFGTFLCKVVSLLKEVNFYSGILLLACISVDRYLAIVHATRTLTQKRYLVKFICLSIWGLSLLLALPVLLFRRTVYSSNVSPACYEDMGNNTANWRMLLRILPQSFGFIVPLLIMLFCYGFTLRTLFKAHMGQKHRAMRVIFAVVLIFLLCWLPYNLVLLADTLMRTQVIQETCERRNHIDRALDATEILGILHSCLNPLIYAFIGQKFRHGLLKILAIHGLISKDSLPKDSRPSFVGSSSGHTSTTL

Row | Substance | chemotactic response in Transwell migration assays
1 | IL-8 (from UniProt P10145 28-99) (ligand) | > 500%
2 | UL146 (ligand) | > 500%
